The values that follow come from patent US20210277441A1, “METHOD OF SELECTING A POLYPEPTIDE OF INTEREST” (IMPERIAL COLLEGE INNOVATIONS LIMITED, priority 2018, published 2021).

One experiment has as its system AL cells. Description: 1H NMR analysis of fermentation broth of anaerobic cultures. In kind it is cell-based, Escherichia coli. More on the design: Substrate concentration: unit not given here.
The subject of experiment [1] is LS1 strain (ΔadhE ΔldhA double mutant) cells. Description: Metabolic complementation (anaerobic growth recovery) of LS1/AL strain. In kind it is cell-based, Escherichia coli. The note with it: LS1, medium supplemented with acetoin. On the procedure:
The LS1 mutant strain and the parental BW25113 strain were transformed with the desired plasmid and overnight pre-cultures were grown aerobically in 15 mL Falcon tubes with M9 media (0.4% glucose). These pre-cultures were used to inoculate 10 mL Hungate tubes with M9 medium (0.4% glucose) supplemented with 100 μg/mL ampicillin, 1 mM IPTG and with or without the specific substrate of the dehydrogenase under anaerobic conditions at 37° C. Metabolic complementation was assessed by measuring the optical density at 600 nm every two hours during daytime.

[2] abbreviates: exogenous substrate acetoin, product 2,3-butanediol.
Setting [3] is: exogenous substrate 2-nitrobenzoic acid.
Setting [4] is: exogenous substrate 4-nitrobenzylic alcohol.
[5] abbreviates: exogenous substrate 2-methyl-1-pyrroline.

B1: pLS2: pUC19 with sADH NADH-dependent from Bacillus subtilis (bdhA), acetoin reductase (protein, UniProt O34788 1-346, looked up)
(R,R)-butanediol dehydrogenase: MKAARWHNQKDIRIEHIEEPKTEPGKVKIKVKWCGICGSDLHEYLGGPIFIPVDKPHPLTNETAPVTMGHEFSGEVVEVGEGVENYKVGDRVVVEPIFATHGHQGAYNLDEQMGFLGLAGGGGGFSEYVSVDEELLFKLPDELSYEQGALVEPSAVALYAVRSSKLKAGDKAAVFGCGPIGLLVIEALKAAGATDIYAVELSPERQQKAEELGAIIVDPSKTDDVVAEIAERTGGGVDVAFEVTGVPVVLRQAIQSTTIAGETVIVSIWEKGAEIHPNDIVIKERTVKGIIGYRDIFPAVLSLMKEGYFSADKLVTKKIVLDDLIEEGFGALIKEKSQVKILVRPN
modifications: expressed from pUC19 plasmid
notes: pUC19 with sADH NADH-dependent from Bacillus subtilis (bdhA), acetoin reductase
Consider B1, for which, in the experiment on AL cells (exogenous substrate acetoin), the Acetate concentration is recorded as 6.7, the Ethanol concentration amounted to 0, the Formate concentration came out at 3.7 and the Lactate concentration was 0. In the experiment with AL cells (exogenous substrate acetoin), the Substrate concentration is given as 0 and the Succinate concentration was determined as 0.5. In the experiment with AL cells (setting [2]), the Product concentration was found to be 8.4. Also, the anaerobic growth recovery result in experiment [1] is reported as “growth recovery was achieved”.

B2: pLS3: pUC19 with sADH NADH-dependent from Klebsiella pneumoniae (budC), acetoin reductase (protein, UniProt Q48436 1-256, looked up)
Diacetyl reductase …: MKKVALVTGAGQGIGKAIALRLVKDGFAVAIADYNDATAKAVASEINQAGGRAMAVKVDVSDRDQVFAAVEQARKTLGGFDVIVNNAGVAPSTPIESITPEIVDKVYNINVKGVIWGIQAAVEAFKKEGHGGKIINACSQAGHVGNPELAVYSSSKFAVRGLTQTAARDLAPLGITVNGYCPGIVKTPMWAEIDRQVSEAAGKPLGYGTAEFAKRITLGRLSEPEDVAACVSYLASPDSDYMTGQSLLIDGGMVFN
modifications: expressed from pUC19 plasmid
notes: pUC19 with sADH NADH-dependent from Klebsiella pneumoniae (budC), acetoin reductase
Turning to B2, in the experiment with AL cells (exogenous substrate acetoin), the Acetate concentration amounted to 7.9, the Ethanol concentration came to 0, the Formate concentration came out at 5 and the Lactate concentration is 0. Besides, in the experiment on AL cells (exogenous substrate acetoin), the Substrate concentration is 0.2 and the Succinate concentration amounted to 0.7. Besides, in the experiment on AL cells (setting [2]), the Product concentration turned out to be 8.3. Besides, the anaerobic growth recovery entry in experiment [1] is reported as “growth recovery was achieved”.

B3: nsfB nitroreductase from Enterobacter cloacae (protein, listed as Enterobacter cloacae)
chain: MDIISVALKRHSTKAFDASKKLTAEEAEKIKTLLQYSPSSTNSQPWHFIVASTEEGKARVAKSAAGTYVFNERKMLDASHVVVFCAKTAMDDAWLERVVDQEEADGRFNTPEAKAANHKGRTYFADMHRVDLKDDDQWMAKQVYLNVGNFLLGVGAMGLDAVPIEGFDAAILDEEFGLKEKGFTSLVVVPVGHHSVEDFNATLPKSRLPLSTIVTEC
Turning to B3, in the experiment with AL cells (setting [3]), the Acetate concentration is reported as 0.7, the Ethanol concentration is 0, the Formate concentration was 0.4 and the Lactate concentration was 0. In the experiment with AL cells (setting [3]), the Substrate concentration was 14.1 and the Succinate concentration is reported as 0. In the experiment on AL cells (setting [4]), this molecule registered an Acetate concentration of 0.8, an Ethanol concentration of 0, a Formate concentration of 0.4 and a Lactate concentration of 0. In the experiment on AL cells (setting [4]), this molecule gave a Substrate concentration of 8.28 and a Succinate concentration of 0.

B4: EntNFSB-s2: nitroreductase variant identified for cells grown with 4-nitrobenzyl alcohol (protein)
chain: MDIISVALKRHSTKAFDASKKLTAEEAEKIKTLLQYSPSSLNSQPWHFIVASTEEGKARVAKSAAGTLVFNERKMLDASHVVVFCAKTAMDDAWLERVVDQEEADGRFNTPEAKAANHKGRTYLADMHRVDLKDDDQWMAKQVYLNVGNFLLGVGAMGLDAVPIEGFDAAILDEEFGLKEKGFTSLVVVPVGHHSVEDFNATLPKSRLPLSTIVTEC
modifications: no acid variant of Enterobacter cloacae nitroreductase
notes: nitroreductase variant identified for cells grown with 4-nitrobenzyl alcohol
As for B4, in the experiment with AL cells (setting [4]), the Acetate concentration was determined as 13.2, the Ethanol concentration amounted to 0, the Formate concentration is 7.9 and the Lactate concentration was 0. In the experiment with AL cells (setting [4]), this molecule returned a Substrate concentration of 0 and a Succinate concentration of 1.

B5: EntNFSB-s1: nitroreductase variant selected for 2-NBA (protein)
chain: MDIISVALKRHSTKAFDASKKLTAEEAEKIKTLLQYSPSAINSQPWHFIVASTEEGKARVAKSAAGTYVFNERKMLDASHVVVFCAKTAMDDAWLERVVDQEEADGRFNTPEAKAANHKGRTYAADMHRVDLKDDDQWMAKQVYLNVGNFLLGVGAMGLDAVPIEGFDAAILDEEFGLKEKGFTSLVVVPVGHHSVEDFNATLPKSRLPLSTIVTEC
modifications: amino acid variant of Enterobacter cloacae nitroreductase
notes: nitroreductase variant selected for 2-NBA
In the experiment with AL cells (setting [3]), B5 came in with an Acetate concentration of 4.4, an Ethanol concentration of 0, a Formate concentration of 2.9 and a Lactate concentration of 0. Also, in the experiment on AL cells (setting [3]), the Substrate concentration stood at 12.4 and the Succinate concentration came to 0.3.

B6: Myxococcus stipitatus imine reductase (protein)
chain: MKPTLTVIGAGRMGSALIKAFLQSGYTTTVWNRTKAKSEPLAKLGAHLADTVRDAVKRSDIIVVNVLDYDTSDQLLRQDEVTRELRGKLLVQLTSGSPALAREQETWARQHGIDYLDGAIMATPDFIGQAECALLYSGSAALFEKHRAVLNVLGGATSHVGEDVGHASALDSALLFQMWGTLFGTLQALAISRAEGIPLEKTTAFIKLTEPVTQGAVADVLTRVQQNRLTADAQTLASLEAHNVAFQHLLALCEERNIHRGVADAMYSVIREAVKAGHGKDDFAILTRFLK
modifications: Myxococcus stipitatus imine reductase
In the experiment with AL cells (setting [5]), B6 registered an Acetate concentration of 4.3, an Ethanol concentration of 0, a Formate concentration of 2.1 and a Lactate concentration of 0. In the experiment with AL cells (setting [5]), this molecule registered a Substrate concentration of 5.5 and a Succinate concentration of 1.2. Besides, the Product concentration in the experiment with AL cells (exogenous substrate 2-methyl-1-pyrroline, product 2-methylpyrrolidine) is reported as 6.6.
